Source: patent US5821104

Molecular target: Phe-Pro-Ala-pNA

Aspergillus niger tripeptidyl aminopeptidase (TPAP) (enzyme)
specific activity (release of pNA in the TPAP assay): 27 µmol/min/mg
